Biological target: T1, CD20 antigen (UniProtKB P11836 - gene MS4A1), on Daudi cells (Homo sapiens, UniProt P11836 1-297)
T1 sequence: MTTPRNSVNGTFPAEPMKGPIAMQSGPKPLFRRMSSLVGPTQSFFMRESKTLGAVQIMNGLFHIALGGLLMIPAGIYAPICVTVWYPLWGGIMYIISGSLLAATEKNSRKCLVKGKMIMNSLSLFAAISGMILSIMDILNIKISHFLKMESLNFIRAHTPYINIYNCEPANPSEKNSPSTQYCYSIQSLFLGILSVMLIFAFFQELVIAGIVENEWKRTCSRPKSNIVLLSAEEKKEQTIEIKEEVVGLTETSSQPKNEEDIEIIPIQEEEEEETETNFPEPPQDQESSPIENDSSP
Assay: cell-based or functional assay

- fold-change of expansion over four days of co-culture: > 10 fold
B1: anti-CD20 dimeric antigen receptor (CD20 DAR), expressed on primary human T cells (other)
heavy: QVQLQQPGAELVKPGASVKMSCKASGYTFTSYNMHWVKQTPGRGLEWIGAIYPGNGDTSYNQKFKGKATLTADKSSSTAYMQLSSLTSEDSAVYYCARSTYYGGDWYFNVWGAGTTVTVSAASTKGPSVFPLAPSSKSTSGGTAALGCLVKDYFPEPVTVSWNSGALTSGVHTFPAVLQSSGLYSLSSVVTVPSSSLGTQTYICNVNHKPSNTKVDKRVEPKSCDKTHTPRKIEVMYPPPYLDNEKSNGTIIHVKGKHLCPSPLFPGPSKPFWVLVVVGGVLACYSLLVTVAFIIFWVKRGRKKLLYIFKQPFMRPVQTTQEEDGCSCRFPEEEEGGCELRVKFSRSADKGERRRGKGHDGLYQGLSTATKDTYDALHMQALPPR
light: QIVLSQSPAILSASPGEKVTMTCRASSSVSYIHWFQQKPGSSPKPWIYATSNLASGVPVRFSGSGSGTSYSLTISRVEAEDAATYYCQQWTSNPPTFGGGTKLEIKRTVAAPSVFIFPPSDEQLKSGTASVVCLLNNFYPREAKVQWKVDNALQSGNSQESVTEQDSKDSTYSLSSTLTLSKADYEKHKVYACEVTHQGLSSPVTKSFNRGEC
